Square brackets hold non-standard residues; d marks the D form. Ends that are not written are not given here.
Columns and labels:
amyloid β (Aβ) plaques [1] = biological target: amyloid β (Aβ) plaques (UniProt P05067); assay: in vivo labelling of Aβ plaques after i.v. injection into APPswe/PS1ΔE9 AD mice, injected dose 8X (0.55 µmol/Kg)
amyloid β (Aβ) plaques [2] = biological target: amyloid β (Aβ) plaques (UniProt P05067); assay: in vivo labelling of Aβ plaques after i.v. injection into APPswe/PS1ΔE9 AD mice, injected dose 2X (0.137 µmol/Kg)
amyloid β (Aβ) plaques [3] = biological target: amyloid β (Aβ) plaques (UniProt P05067); assay: in vivo labelling of Aβ plaques after i.v. injection into APPswe/PS1ΔE9 AD mice, injected dose 4X (0.274 µmol/Kg)
amyloid β (Aβ) plaques [4] = biological target: amyloid β (Aβ) plaques (UniProt P05067); assay: in vivo labelling of Aβ plaques after i.v. injection into APPswe/PS1ΔE9 AD mice, injected dose 6X (0.411 µmol/Kg)
amyloid β (Aβ) plaques [5] = biological target: amyloid β (Aβ) plaques (UniProt P05067); assay: in vivo labelling of Aβ plaques after i.v. injection of rhodamine-labelled conjugate into APPswe/PS1ΔE9 AD mice, dose 8X; fluorescence microscopy of brain sections

Sequence of amyloid β (Aβ) plaques (P05067 672-713): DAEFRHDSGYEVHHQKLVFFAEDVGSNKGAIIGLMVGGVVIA

B1: PMLA/LLL/D3/rhodamine (peptide)
peptide 1: [dR][dP][dR][dT][dR][dL][dH][dT][dH][dR][dN][dR]C
peptide 2: Leu-Leu-Leu
modifications: not fully specified (some residues, N-terminus); also: PMLA scaffold carrying LLL (amide-linked to pendant carboxylates), D3 peptide and rhodamine, D3 Cys thioether to maleimide-PEG3400 on PMLA
Percentage of total plaques labeled by the reagents (amyloid β (Aβ) plaques [1]): 21.1%
Percentage of total plaques labeled by the reagents (amyloid β (Aβ) plaques [2]): 0%
Percentage of total plaques labeled by the reagents (amyloid β (Aβ) plaques [3]): 0%
Percentage of total plaques labeled by the reagents (amyloid β (Aβ) plaques [4]): 0%
Percentage of total plaques labeled by the reagents (amyloid β (Aβ) plaques [5]): 21.1%

— patent US20200206304A1, “METHODS AND COMPOSITIONS FOR EFFICIENT DELIVERY THROUGH MULTIPLE BIO BARRIERS” (Cedars-Sinai Medical Center, priority 2017, published 2020)
